Assay results reported in patent publication US20240254229A1 (Molecular Partners, published 2024).

Tests used:
[1] = target: T1, human CD3 on primary human pan-T cells (human, UniProt P07766 23-207; P09693 23-182; P04234 22-171; P20963 22-164); experiment: Mirrorball laser scanning cytometry on primary human pan-T cells, anti-penta-His Alexa Fluor 488 detection, 600 µM HSA
T1 construct: whole, on cells; Native complex on T cells isolated from PBMC; also called CD3 on Pan-T cells
Protocol: (§1) The determination of CD3 binding was performed with primary human T cells using Mirrorball laser scanning imaging cytometry. Therefore, primary T cells were isolated from human peripheral blood mononuclear cells (PBMCs) using a pan-T cell purification kit (Miltenyi Biotec). A titration of DARPin® protein #7, DARPin® protein #8 and DARPin® protein #9 and DARPin® protein #10, formatted into a trispecific format (including CD33 and CD123 binding ankyrin repeat domains), DARPin® protein #11, DARPin® protein #12, DARPin® protein #13 and DARPin® protein #14 UN tetraspecific format (including an additional ankyrin repeat domain binding specifically to human serum albumin) were incubated with 50′000 pan-T cells per well in presence of 600 μM human serum albumin (to mimic physiological serum concentration) for 30 minutes at 4° C. Two benchmark T-cell engagers, AMG330 and flotetuzumab were applied as controls, targeting CD33 or CD123. After washing, CD3 binding was detected by 1:100-diluted anti-penta-His Alexa Fluor 488 antibody (Qiagen). After 30 min incubation at 4° C., cells were washed and resuspended in Cytofix fixation buffer (BD Biosciences) and counterstained by 5 μM DRAQ5 (Abcam) for 15 min at RT. Median of mean fluorescence intensities of Alexa Fluor 488 binding on far-red counterstained cells were measured by Mirrorball using Cellista software (SPT Labtech) and data was plotted using GraphPad Prism 8.

[2] = target: T2, extracellular domain of human CD70 (SEQ ID NO: 89), hCD70-Fc-trimer, ACRO Biosystems (human, UniProt P32970 52-193, chemically biotinylated where the biotinylated form was used); experiment: SPR (ProteOn XPR36), target on GLC chip, DARPin as analyte
T2 construct: also called human CD70-Fc-trimer; Bio.CD70
T2 sequence: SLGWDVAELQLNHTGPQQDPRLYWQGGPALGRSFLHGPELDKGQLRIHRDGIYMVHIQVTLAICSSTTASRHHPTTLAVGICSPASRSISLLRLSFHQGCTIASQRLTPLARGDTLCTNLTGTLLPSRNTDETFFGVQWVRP

[3] = target: T3, biotinylated extracellular domain of human CD33 (SEQ ID NO: 87), Fc and Avi tagged (human, UniProt P20138 18-259, biotinylated with BirA-GST (Avi tag)); experiment: as above
T3 construct: also called hCD33; human target hCD33
T3 sequence (P20138 18-259 R69G): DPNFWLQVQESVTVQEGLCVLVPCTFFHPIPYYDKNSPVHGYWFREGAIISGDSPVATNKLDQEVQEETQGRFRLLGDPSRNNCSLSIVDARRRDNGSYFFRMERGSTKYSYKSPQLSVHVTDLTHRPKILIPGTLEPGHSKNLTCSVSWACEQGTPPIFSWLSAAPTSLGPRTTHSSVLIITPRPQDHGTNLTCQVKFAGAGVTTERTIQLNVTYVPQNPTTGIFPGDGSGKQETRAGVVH

[4] = target: T4, biotinylated extracellular domain of human CD123 (SEQ ID NO: 88), Fc and Avi tagged (human, UniProt P26951 19-303, biotinylated with BirA-GST (Avi tag)); experiment: SPR (ProteOn XPR36), target on GLC chip
T4 construct: also called hCD123
T4 sequence: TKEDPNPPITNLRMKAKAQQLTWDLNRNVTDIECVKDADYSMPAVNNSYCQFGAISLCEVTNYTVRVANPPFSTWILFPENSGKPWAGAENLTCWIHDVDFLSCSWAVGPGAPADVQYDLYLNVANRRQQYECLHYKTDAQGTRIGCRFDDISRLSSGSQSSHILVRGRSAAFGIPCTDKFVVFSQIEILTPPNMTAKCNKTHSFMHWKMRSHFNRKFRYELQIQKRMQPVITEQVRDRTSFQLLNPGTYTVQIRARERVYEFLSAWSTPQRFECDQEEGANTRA
Text: (§2) For that, DARPin® protein #27, DARPin® protein #29, DARPin® protein #47 and DARPin® protein #48 and DARPin® protein #49, DARPin® protein #50, DARPin® protein #51, DARPin® protein #52, DARPin® protein #31, DARPin® protein #53, DARPin® protein #54, DARPin® protein #55, DARPin® protein #34, DARPin® protein #33, DARPin® protein #39 and DARPin® protein #36 were subcloned and expressed as described above into derivatives of the pQE30 (Qiagen) expression vector, containing an N-terminal His-tag, CD33, CD123 and/or CD70 binding ankyrin repeat domains, followed by a CD3 specific ankyrin repeat domain and for some constructs by a human serum albumin specific ankyrin repeat domain.
(§3) Briefly, biotinylated human CD70, CD123 and CD33 was diluted in PBST (PBS, pH 7.4 containing 0.005% Tween 20®) and coated on a GLC chip (BioRad) to a level of around 200, 460 and 450 resonance units (RU) respectively. HSA in NaOAc pH 5.0 was directly immobilized on the GLC chip to a level of 800 RU. Bio.CD70, bio. CD33 and bio. CD123 required to have Neutravidin coated first to a level of 6000 RU before the biotinylated targets could be applied. The interaction of the selected ankyrin repeat proteins and human CD70, CD123 and CD33 was then measured by injecting 300 μl running buffer (PBS, pH 7.4 containing 0.005% Tween 20®) containing serial dilutions of ankyrin repeat proteins covering a concentration range between 100 nM and 2.6 nM (100, 40, 16, 6.4 and 2.6 nM respectively) for multi-trace SPR measurements, with an association of 120 s and dissociation of 1200 s using a constant flow of 100 μl/min. The regeneration was performed using 30 μl of 4 mM Glycine pH 2. The signals (i.e. resonance unit (RU) values) of the interspots and a reference injection (i.e. injection of running buffer only) were subtracted from the RU traces obtained after injection of ankyrin repeat protein (double-referencing).

human serum albumin = target: T5, human serum albumin (human, UniProt P02768 25-609); experiment: SPR (ProteOn XPR36), target on GLC chip
T5 construct: also called HSA; SA
T5 sequence (P02768 25-609 limits assumed): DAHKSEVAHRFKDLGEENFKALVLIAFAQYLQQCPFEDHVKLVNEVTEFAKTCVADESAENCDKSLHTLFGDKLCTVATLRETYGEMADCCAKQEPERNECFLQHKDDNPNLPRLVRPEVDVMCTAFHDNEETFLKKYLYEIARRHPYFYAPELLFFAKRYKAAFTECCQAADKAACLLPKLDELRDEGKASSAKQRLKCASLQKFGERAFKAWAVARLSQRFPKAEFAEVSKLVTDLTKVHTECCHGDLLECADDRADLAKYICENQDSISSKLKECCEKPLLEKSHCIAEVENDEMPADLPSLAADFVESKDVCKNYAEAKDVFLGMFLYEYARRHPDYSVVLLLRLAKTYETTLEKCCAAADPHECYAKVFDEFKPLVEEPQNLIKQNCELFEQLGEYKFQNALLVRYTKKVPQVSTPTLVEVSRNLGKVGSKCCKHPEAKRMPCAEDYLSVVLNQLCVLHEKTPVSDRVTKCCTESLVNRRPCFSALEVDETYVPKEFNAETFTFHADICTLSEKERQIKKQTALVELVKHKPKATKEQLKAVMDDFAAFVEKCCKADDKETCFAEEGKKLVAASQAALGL
Text: as §2, §3

[5] = target: T1, human CD3 on primary human pan-T cells; experiment: Mirrorball cytometry on primary human pan-T cells, 600 µM HSA
Protocol: as §1, with “of T cell” for “of CD3”, “protein #27,” for “protein #7,”, “protein #28” for “protein #8”, “protein #29” for “protein #9”, “protein #30” for “protein #10, formatted into a trispecific format (including CD33 and CD123 binding ankyrin repeat domains), DARPin® protein #11, DARPin® protein #12, DARPin® protein #13 and DARPin® protein #14 UN tetraspecific format (including an additional ankyrin repeat domain binding specifically to human serum albumin)”

T1 sequence (P07766 23-207, chain 1 of 4): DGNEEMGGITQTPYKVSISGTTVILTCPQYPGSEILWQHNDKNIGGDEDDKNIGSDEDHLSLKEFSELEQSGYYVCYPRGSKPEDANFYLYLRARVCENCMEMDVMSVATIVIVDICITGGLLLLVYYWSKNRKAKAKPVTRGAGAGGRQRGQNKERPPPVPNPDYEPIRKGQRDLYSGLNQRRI
T1 sequence (P09693 23-182, chain 2 of 4): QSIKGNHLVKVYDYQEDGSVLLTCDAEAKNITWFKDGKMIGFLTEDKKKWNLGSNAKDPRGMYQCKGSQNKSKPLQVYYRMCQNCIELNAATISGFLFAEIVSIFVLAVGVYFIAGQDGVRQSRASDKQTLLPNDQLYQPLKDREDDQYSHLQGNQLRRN
T1 sequence (P04234 22-171, chain 3 of 4): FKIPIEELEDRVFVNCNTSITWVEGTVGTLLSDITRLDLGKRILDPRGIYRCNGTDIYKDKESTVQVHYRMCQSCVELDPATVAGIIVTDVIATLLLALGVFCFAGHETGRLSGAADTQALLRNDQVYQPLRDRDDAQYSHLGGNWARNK
T1 sequence (P20963 22-164, chain 4 of 4): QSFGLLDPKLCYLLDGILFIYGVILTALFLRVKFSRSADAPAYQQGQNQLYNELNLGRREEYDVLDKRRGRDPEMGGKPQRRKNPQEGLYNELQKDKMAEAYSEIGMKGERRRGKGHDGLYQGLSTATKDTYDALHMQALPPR

B1: DARPin® protein #7 (designed binder)
chain: DLGKKLLEAARAGQDDEVRILMANGADVNALDWLGHTPLHLAAYEGHLEIVEVLLKNGADVNAIDDNNGFTPLHLAAIDGHLEIVEVLLKNGADVNAQDKFGKTAFDISIDNGNEDLAEILQKAAGSPTPTPTTPTPTPTTPTPTPTGSDLGDKLLLAATSGQDDEVRILLAAGADVNAKDYDGDTPLHLAADEGHLEIVEVLLKAGADVNAKDYSGSTPLHAAAAYGHLEIVEVLLKAGADVNAQDVFGYTPADLAAYVGHEDIAEVLQKAAGSPTPTPTTPTPTPTTPTPTPTGSDLGQKLLEAAWAGQDDEVRELLKAGADVNAKDSQGWTPLHTAAQTGHLEIFEVLLKAGADVNAKDDKGVTPLHLAAALGHLEIVEVLLKAGADVNAQDSWGTTPADLAAKYGHEDIAEVLQKAA
notes: CD123-CD33-CD3 ankyrin repeat protein, no half-life extension; also called DARPin® #7; not shown: N-terminal His-tag
**Q.** Does B1 bind [1]?
**A.** no binding

B2: DARPin® protein 11 (designed binder)
single chain: DLGKKLLEAARAGQDDEVRELLKAGADVNAKDYFSHTPLHLAARNGHLKIVEVLLKAGADVNAKDFAGKTPLHLAAADGHLEIVEVLLKAGADVNAQDIFGKTPADIAADAGHEDIAEVLQKAAGSPTPTPTTPTPTPTTPTPTPTGSDLGKKLLEAARAGQDDEVRILMANGADVNALDWLGHTPLHLAAYEGHLEIVEVLLKNGADVNAIDDNNGFTPLHLAAIDGHLEIVEVLLKNGADVNAQDKFGKTAFDISIDNGNEDLAEILQKAAGSPTPTPTTPTPTPTTPTPTPTGSDLGDKLLLAATSGQDDEVRILLAAGADVNAKDYDGDTPLHLAADEGHLEIVEVLLKAGADVNAKDYSGSTPLHAAAAYGHLEIVEVLLKAGADVNAQDVFGYTPADLAAYVGHEDIAEVLQKAAGSPTPTPTTPTPTPTTPTPTPTGSDLGQKLLEAAWAGQDDEVRELLKAGADVNAKDSQGWTPLHTAAQTGHLEIFEVLLKAGADVNAKDDKGVTPLHLAAALGHLEIVEVLLKAGADVNAQDSWGTTPADLAAKYGHEDIAEVLQKAA
notes: half-life extended format of DARPin® protein #7; also called HSA-CD123-CD33-CD3
**Q.** Does B2 bind [1]?
**A.** no binding (tested: about 3000 nM)

B3: DARPin® protein #14 (designed binder)
chain: DLGKKLLEAARAGQDDEVRELLKAGADVNAKDYFSHTPLHLAARNGHLKIVEVLLKAGADVNAKDFAGKTPLHLAAADGHLEIVEVLLKAGADVNAQDIFGKTPADIAADAGHEDIAEVLQKAAGSPTPTPTTPTPTPTTPTPTPTGSDLGKKLLEAARAGQDDEVRILMANGADVNALDWLGHTPLHLAAYEGHLEIVEVLLKNGADVNAIDDNNGFTPLHLAAIDGHLEIVEVLLKNGADVNAQDKFGKTAFDISIDNGNEDLAEILQKAAGSPTPTPTTPTPTPTTPTPTPTGSDLGDKLLLAATSGQDDEVRILLAAGADVNAKDYDGDTPLHLAADEGHLEIVEVLLKAGADVNAKDYSGSTPLHAAAAYGHLEIVEVLLKAGADVNAQDVFGYTPADLAAYVGHEDIAEVLQKAAGSPTPTPTTPTPTPTTPTPTPTGSDLGQKLLEAAWAGQLDEVRILLKAGADVNAKNSRGWTPLHTAAQTGHLEIFEVLLKAGADVNAKTNKRVTPLHLAAALGHLEIVEVLLKAGADVNARDTWGTTPADLAAKYGHRDIAEVLQKAA
notes: HSA-CD123-CD33-CD3, half-life extended form of #10; not shown: His-tag implied by anti-penta-His detection
**Q.** Which “EC50 (read off the curve)” value [1] does the source give for B3 here?
**A.** ~20 nM

B4: DARPin® protein #29 (designed binder)
chain: DLGYKLLQAAYDGQLDEVRILLKAGADVNAKDSRGQTPLHYAASIGHLEIVEVLLKAGADVNAKDDHGWTPLHLAAWSGHLEIVEVLLKAGADVNAQDQEGTTPADLAAVQGHQDIAEVLQKAAGSPTPTPTTPTPTPTTPTPTPTGSDLGVKLLLAASRGQLDEVRILLKAGADVNAKDIDEGYTPLHIAAYYGHLEIVEVLLKAGADVNAKDRYGKTPLHLAAISGHLEIVEVLLKAGADVNAQDDKGDTPADLAADYGHQDIAEVLQKAAGSPTPTPTTPTPTPTTPTPTPTGSDLGQKLLEAAWAGQDDEVRELLKAGADVNAKNSRGWTPLHTAAQTGHLEIFEVLLKAGADVNAKDDKGVTPLHLAAALGHLEIVEVLLKAGADVNAQDSWGTTPADLAAKYGHEDIAEVLQKAA
notes: CD70-CD33-CD3; not shown: N-terminal His-tag
**Q.** How did the Kd [2] turn out when B4 was run?
**A.** 0.18 nM

**Q.** And the Kd [3]?
**A.** 4.8 nM

**Q.** Does B4 bind [4]?
**A.** no binding (tested: 100 nM (highest concentration))

**Q.** Does B4 bind (human serum albumin)?
**A.** no binding (tested: 100 nM (highest concentration))

**Q.** What about the EC50 [5] of the same binder?
**A.** 1.97 nM
